One assay addresses T1, Mcm6 (budding yeast, UniProt P53091 1-1017).
T1 construct: Mcm6, subunit of the budding yeast MCM (Mcm2-7), expressed as an individual subunit; called Mcm6 fl and the full-length protein; also called Mcm6 fl; full-length Mcm6; source: E. coli, purified
The assay is described as follows: pull-down; Cdt1 FLAG held on M2 anti-FLAG agarose, Mcm6 fl or ΔC in solution; 10 μg of each protein, buffer B, 60 min at 4 °C; eluted with FLAG peptide; Coomassie. To be noted: both partners purified.

The target of assay [1] is T2, Mcm6 within purified Cdt1–MCM complexes (budding yeast, UniProt P53091 1-1017).
T2 construct: Mcm6, yeast MCM subunit, as part of the Cdt1-MCM complex; source: purified Cdt1-MCM complex
T2 sequence (P53091 whole entry, one chain of several): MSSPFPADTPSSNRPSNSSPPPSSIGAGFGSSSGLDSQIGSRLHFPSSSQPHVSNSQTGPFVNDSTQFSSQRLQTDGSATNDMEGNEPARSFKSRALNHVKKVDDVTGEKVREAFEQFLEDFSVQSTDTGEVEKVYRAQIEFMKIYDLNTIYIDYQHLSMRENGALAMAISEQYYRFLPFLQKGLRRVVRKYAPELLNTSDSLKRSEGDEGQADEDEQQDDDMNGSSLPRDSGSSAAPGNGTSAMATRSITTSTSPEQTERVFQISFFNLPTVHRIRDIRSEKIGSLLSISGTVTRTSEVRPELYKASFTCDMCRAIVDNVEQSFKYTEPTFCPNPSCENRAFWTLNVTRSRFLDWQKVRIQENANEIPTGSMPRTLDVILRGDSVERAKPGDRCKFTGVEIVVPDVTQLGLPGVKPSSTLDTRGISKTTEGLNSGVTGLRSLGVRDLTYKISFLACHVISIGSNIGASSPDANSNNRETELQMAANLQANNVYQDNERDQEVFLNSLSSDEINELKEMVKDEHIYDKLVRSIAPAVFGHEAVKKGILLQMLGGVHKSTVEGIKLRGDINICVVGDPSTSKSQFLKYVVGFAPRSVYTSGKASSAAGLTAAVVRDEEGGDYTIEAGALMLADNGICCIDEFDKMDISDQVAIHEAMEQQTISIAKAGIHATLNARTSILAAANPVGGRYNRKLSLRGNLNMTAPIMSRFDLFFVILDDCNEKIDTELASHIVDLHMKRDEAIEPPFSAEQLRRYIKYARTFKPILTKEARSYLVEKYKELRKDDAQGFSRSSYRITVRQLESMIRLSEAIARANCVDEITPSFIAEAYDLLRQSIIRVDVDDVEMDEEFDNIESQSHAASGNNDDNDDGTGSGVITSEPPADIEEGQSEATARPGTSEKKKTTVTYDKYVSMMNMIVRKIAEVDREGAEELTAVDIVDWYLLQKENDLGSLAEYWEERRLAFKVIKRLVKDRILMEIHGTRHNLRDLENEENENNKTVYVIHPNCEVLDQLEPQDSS
The assay is described as follows: cross-linking; MCM-Cdt1 FLAG complex (200 μg) crosslinked with 20, 50 and 100 μM BS3; denatured with SDS; denaturing anti-FLAG immunoprecipitation; silver staining, bands identified by immunoblotting and mass spectrometry. To be noted: both partners purified. (In western blotting, separated proteins are transferred to a membrane and probed.)

T1 sequence (P53091 whole entry): as the sequence (P53091 whole entry, one chain of several) above

B1: Cdt1 FLAG (natural protein, S. cerevisiae, UniProt P47112 1-604, looked up)
chain: MSGTANSRRKEVLRVPVIDLNRVSDEEQLLPVVRAILLQHDTFLLKNYANKAVLDALLAGLTTKDLPDTSQGFDANFTGTLPLEDDVWLEQYIFDTDPQLRFDRKCRNESLCSIYSRLFKLGLFFAQLCVKSVVSSAELQDCISTSHYATKLTRYFNDNGSTHDGADAGATVLPTGDDFQYLFERDYVTFLPTGVLTIFPCAKAIRYKPSTMATTDNSWVSIDEPDCLLFHTGTLLARWSQGMHTTSPLQIDPRANIVSLTIWPPLTTPISSKGEGTIANHLLEQQIKAFPKVAQQYYPRELSILRLQDAMKFVKELFTVCETVLSLNALSRSTGVPPELHVLLPQISSMMKRKIVQDDILKLLTIWSDAYVVELNSRGELTMNLPKRDNLTTLTNKSRTLAFVERAESWYQQVIASKDEIMTDVPAFKINKRRSSSNSKTVLSSKVQTKSSNANALNNSRYLANSKENFMYKEKMPDSQANLMDRLRERERRSAALLSQRQKRYQQFLAMKMTQVFDILFSLTRGQPYTETYLSSLIVDSLQDSNNPIGTKEASEILAGLQGILPMDISVHQVDGGLKVYRWNSLDKNRFSKLLQIHKSKQQD
notes: Cdt1, S. cerevisiae, FLAG-tagged; also called FLAG-tagged Cdt1; source: purified; alone for the pull-downs, within the MCM-Cdt1 FLAG complex for the crosslinking
Regarding B1, the binding result (with Mcm6; in assay [1]) was “binds” throughout.

For the origin of these results see article PMC5490006 (Nature Communications, 2017).
